Measured values published in publication PMC9876794 (2022).

target: SARS-CoV-2 spike RBD (WT) (Severe acute respiratory syndrome …, UniProt P0DTC2); assay: BLI

Row | Binder | Kd [nM]
1 | B07 (antibody, V domains shown) VH: QVQLQQSGPELVKPGASVKISCKASGYVFSSSWMNWVKQRPGKGLEWIGRIYPGDGETNYNGKFKGKATLTADKSSSTAYMQLSSLTSEDSAVYFCARFDYGYDGHVWGTGTTVTVSS VL: DIVMTQSQKFMSTSVGDRVSVTCKASQNVGTNVAWYQQKPGQSPKALIYSASYLYSGVPDRFTGSGSGTDFTLTISNVQSEDLAEYFCQQYNSYPLLTFGAGTKLELK | 17700
2 | B02 (antibody, V domains shown) VH: QVQLQQPGAELVKPGASVKVSCKASGYTFTSYWMHWVKQRPGQGLEWIGRIHPSDSDTNYNQKFKGKATLTVDKSSSTAYMQLSSLTSEDSAVYYCAMDWDVDYWGQGTTLTVSS VL: QIVLTQSPALMSASPGEKVTMTCSASSSVSYMYWYQQKPRSSPKPWIYLTSNLASGVPARFSGSGSGTSYSLTISSMEAEDAATYYCQQWSSNPFTFGSGTKLEIK | 580
3 | A49 (antibody, V domains shown) VH: QVQLQQSGSELARPGASVNLSCKASGYTFTSYGVSWVKQRTGQGLEWIGDIYPRSGNSYYNEKFKGKATLTADKSSSTAYMELRSLTSEDSAVYFCAREVYGYEFDYWGQGTTLTVSS VL: DIQMTQTTSSLSASLGDRVTISCRASQDISNYLNWYQQKPDGTVQLLIYYTSRLHSGVPSRFSGSGSGTDYSLTISNLEQEDIATYFCQQGNTLPRTFGGGTKLEIK | 482
4 | B47 (antibody, V domains shown) VH: EVQLQQSGPELVKPGASVKISCKASDYSFTGYYMNWVKQSPEKSLEWIGEINPSTGGTTYNQKFKAKATLTVDKSSSTAYMQLKSLTSEDSAVYYCARGSGAYWGQGTLVTVSA VL: DIVLTQSPASLAVSLGQRATISCRASESVEYYGTSLMQWYQQKPGQPPKLLIYAASNVESGVPARFSGSGSGTDFSLNIHPVEEDDIAMYFCQQSRKVPYTFGGGTKLEIK | 26.5
5 | B26 (antibody, V domains shown) VH: QVQLQQPGAELVKPGASVKMSCKASGYTFTSYWITWVKQRPGQGLEWIGDIYPGSGSTNYNEKFKSKATLTVDTSSSTAYMQLSSLTSEDSAVYYCARDWDYGSSYWYFDVWGTGTTVTVSS VL: DIKMTQSPSSMYASLGERVTITCKASQDIKSYLSWYQQKPWKSPKTLIYYATSLADGVPSRFSGSGSGQDYSLTISSLASDDTATYYCLQHGESPYTFGGGTKLEIK | 104
6 | B21 (antibody, V domains shown) VH: EVKLEESGGGLVQPGGSMKLSCAASGFTFSDAWMDWVRQSPEKGLEWVAEIRNKANNHATYYAESVKGRFTISRDDSKSSVYLQMNSLRAEDTGIYYCTLFLTGHFDYWGQGTTLTVSS VL: DIVMTQSQKFMSTSVGDRVSITCKASQNVRTAVAWYQQKPGQSPKALIYLASNRHTGVPDRFTGSGSGTDFTLTISNVQSEDLADYFCLQHWNYPLTFGSGTKLEIK | 17.2
7 | B08 (antibody, V domains shown) VH: EVQLQQSGPELVKPGASVKISCKASGYSFTGYYMNWVKQSPEKSLEWIGEINPSTGGTTYNQKFKAKATLTVDKSSSTAYMQLKSLTSEDSAVYYCARGGADVWGTGTTVTVSS VL: DIVLTQSPASLAVSLGQRATISCRASESVEYYGTSLMQWYQQKPGQPPKLLIYAASNVESGVPARFSGSGSGTDFSLNIHPVEEDDIAMYFCQQSRKVPWTFGGGTKLEIK | 87.2
8 | A11 (antibody, V domains shown) VH: QVQLQQPGAELVKPGTSVKLSCKASGYTFTSYWMHWVKQRPGQGLEWIGMIHPNSGNTNYNEKFKSKATLTVDKSSSTAYMQLSSLTSEDSAVYYCADLGAWFAYWGQGTLVTVSA VL: QIVLTQSPAIMSASPGEKVTMTCSASSSISYMHWYQQKPGTSPKRWIYDTSKLASGVPARFSGSGSGTSYSLTISSMEAEDAATYYCHQRSSYPWTFGGGTKLEIK | 7620
9 | B23 (antibody, V domains shown) VH: EVKLEESGGGLVQPGGSMKLSCAASGFTFSDAWMDWVRQSPEKGLEWIAEIRNKANNHATYYAESVKGRFTISRDDSKSSVYLQMNSLRAEDTGIYYCTRGLTGPYFDYWGQGTTLTVSS VL: DIVMTQSQKFMSTSVGDRVTITCKASQNVRTAVAWYQQKPGQSPKALIYLASNRHTGVPDRFTGSGSGTDFTLTISNVQSEDLADYFCLQHWNYPLTFGAGTKLELK | 211
10 | B42 (antibody, V domains shown) VH: QVQLQQPGAELVKPGASVKVSCKASGYTFTSYWMHWVKQRPGQGLEWIGRIHPSDSDTNYNQKFKDKATLTVDKSSSTAYMQLSSLTSEDSAVYFCVIDHYFDYWGQGTTLTVSS VL: DIVMSQSPSSLAVSAGEKVTMSCKSSQSLLNSRTRKNYLAWYQQKPGQSPKLLIYWASTRESGVPDRFTGSGSGTDFTLTISSVQAEDLAVYYCKQSYNLYTFGGGTKLEIK | 91.8
11 | B44 (antibody, V domains shown) VH: QVQLQQPGAELVKPGASVKVSCKASGYTFTSYWMHWVKQRPGQGLEWIGRIHPSDSDTNYNQKFKGKATFTVDKSSSTAYMQLSSLTSEDSAVYYCAIGDGRDFDYWGQGTTLTVSS VL: DVVLTQTPLSLPVNIGDQASISCKSTKSLLNSDGFTYLDWYLQKPGQSPQLLIYLVSNRFSGVPDRFSGSGSGTDFTLKISRVEAEDLGVYYCFQSNYLPLTFGSGTKLEIK | 123
12 | B01 (antibody, V domains shown) VH: QVQLQQPGAELVKPGASMKVSCKASGYTFTSYWMHWVKQRPGQGLEWIGRIHPSDSDTNYNQKFKGKATLTVDKSSSTAYMQLSSLTSEDSAVYYCAIGGGRDFDYWGQGTTLTVSS VL: DVVLTQTPLSLPVNIGDQASISCKSTKSLLNSDGFTYLDWYLQKPGQSPQLLIYLFSNRFSGVPDRFSGSGSGTDFTLKISRVEAEDLGVYYCFQSNYLPWTFGGGTKLEIK | 18.7
13 | A21 (antibody, V domains shown) VH: QVQLQQSGAELVKPGASVKISCKASGYSFSDYWMNWVKQRPGKGLEWIGQIFPGDGDTNYNGKFKGKAALTADKSSSTAYMQLSSLTSEDSAVYFCARRELNYFDYWGQGTTLTVSS VL: QIVLTQSPAIMSASPGEKVTMTCSASSSVSYMFWYQQKPGSSPRLLIYDTSNLASGVPVRFSGSGSGTSYSLTVSRMEAEDAATYYCQQWSSYPLTFGSGTKLEIK | 138
14 | B43 (antibody, V domains shown) VH: DVQLQESGPGLVKPSQSLSLTCSVTGYSITSGYYWNWIRQSPGNKLEWMGYISYDGSNKYNPSLKNRISITRDTSKNQFFLKLNSVTTEDTAIYYCARWDKGAMDYWGQGTSVTVSS VL: DIVMTQSQKFMSTSVGDRVSITCKASQNVRTAVAWYQQKPGQSPKALIYLASNRHTGVPDRFTGGGSGTDFTLTISNVQSEDLADYFCLQHWNYPLTFGAGTKLELK | 40.7
15 | A16 (antibody, V domains shown) VH: DVQLQESGPGLVKPSQSLSLTCSVTGYSITSGYYWNWIRQFPGNKLEWMGYISYDGSNNYNPSLKNRISITRDTSKNQFFLKLNSVTTEDTATYYCARFHYGSRPRYWYFDVWGTGTTVTVSS VL: DIQMTQTTSSLSASLGDRVTISCSASQGIRNYLNWYQQKPDGTVKLLIYYTSSLHSGVPSRFSGSGSGTDYSLTISNLEPEDIATYYCQQYSKLPWTFGGGTKLEIK | 140
16 | B04 (antibody, V domains shown) VH: QVQLKQSGAELVRPGASVKLSCKASGYTFTDYYITWVKQRPGQGLEWIARICPGSGNTFYNEKFMGKATLTAEKSSSTAYMQLSSLTSEDSAVYFCARRGTLLYAFAYWGQGTLVTVSA VL: not shown | 100
17 | B45 (antibody) chain 1: QVQLQQPGAELVKPGASVKVSCKASGYTFTSYWMHWVKQRPGQGLEWIGRIHPSDSDTNYNQKFKGKATLTVDKSSSTAYMQLCSLTSEDCAVYYCAIWEDYGVFYAMDYWGQGTSVTVSS chain 2: DIVMTQSQKFMSTSVGDRVSVTCKASQNVGTNVAWYQQKPGQSPKALIYSASYRYSGVPDRFTGSGSGTDFTLTISNVQSEDLAEYFCQQYNSYPLTFGAGAKLELK | 837
18 | B06 (antibody, V domains shown) VH: QAYLQQSGAELVRPGASVKMSCKASGYTFTSYNMHWVKQTPRQGLEWIGAFYPGNGDTSYNQKFKGKATLTVDKSSSTAYMQLSSLTSEDSAVYFCARDGYPYYYAMDYWGQGTSVTVSS VL: DIKMTQSPSSMYASLGERVTITCKASQDINSFLSWFQQKPGKSPKTLIYRANRLVDGVPSRFSGSGSGQDYSLTISSLEYEDMGIYYCLQYDEFPWTFGGGTKLEIK | 110
19 | A23 (antibody, V domains shown) VH: QAYLQQSGAELVRPGASVKMSCKASGYTFTSYNMHWVKQTPRQGLEWIGAIYPGNGDTSYNQKFKDKATLTVDKSSSTAYMQLSSLTSGDSAVYFCARDYYGCSYGYFDVWGTGTTVTVSS VL: DIQMTQTTSSLSASLGDRVTISCSASQGISNYLNWYQQKPDGTVKLLIYYTSSLHSGVPSRFSGSGSGTDYSLTISNLEPEDIATYYCQQYSKLPYTFGGGTKLEIK | 850
20 | B46 (antibody, V domains shown) VH: QVQLQQPGAELVKPGASVKVSCKASGYTFTSYWMHWVKQRPGQGLEWIGRIHPSDSDTNYNQNFKGKATLTVDKSSSTAYMQLSSLTSEDSAVYYCALDGYYGIWWGQGTLVTVSA VL: DIVMTQSQKFMSTSVGDRVSVTCKASQNVGTNVAWYQQKPGQSPKALIYSASYRYSGVPDRFTGSGSGTDFTLTISNVQSEDLAEYFCQQCNSYPLTFGGGTKLEIK | 282
